Experimental data published in US20060025342A1 (OSTEOTROPHIN, published 2006).
Read-outs that look alike come from different tables or passages of the source. Non-standard residues stand in square brackets, D forms with d. No end group written: not given here. Nle = CCCC[C@H](N)C(=O)O

B1: bovine PTH-(1-34) (peptide, UniProt P01268 32-65, looked up)
peptide: AVSEIQFMHNLGKHLSSMERVEWLRKKLQDVHNF
notes: range 1-34; Synthetic, Bachem; also called bPTH-(1-34); bovine (b)PTH-(1-34)
B2: rat PTH-(1-34) (peptide, UniProt P04089 32-65, looked up)
peptide: AVSEIQLMHNLGKHLASVERMQWLRKKLQDVHNF
notes: range 1-34; Synthetic, Bachem; also called rPTH-(1-34); rat (r)PTH-(1-34)
B3: [Nle^8,18,Tyr^34]hPTH-(1-34)amide (peptide)
peptide: SVSEIQL[Nle]HNLGKHLNS[Nle]ERVEWLRKKLQDVHNY-NH2
notes: also called NNT-hPTH-(1-34); [Nle^8,18, Tyr^34]hPTH-(1-34)NH2
B4: bPTH-(1-84) (ligand, bovine, UniProt P01268 32-115, looked up)
chain: AVSEIQFMHNLGKHLSSMERVEWLRKKLQDVHNFVALGASIAYRDGSSQRPRKKEDNVLVESHQKSLGEADKADVDVLIKAKPQ
notes: range 1-84; From the National Hormone and Pituitary Program (NIDDK); also called bovine PTH-(1-84)
B5: Chicken PTH-(1-34)amide (peptide, UniProt P15743 32-65, looked up)
peptide: SVSEMQLMHNLGEHRHTVERQDWLQMKLQDVHSA-NH2
notes: range 1-34; Solid phase synthesis; also called cPTH-(1-34)NH2

How the values were obtained:
[1] = target: T1, human PTH/PTHrP receptor (PTH1 receptor) (human, UniProt Q03431 27-593); assay: cell-based or functional assay
T1 sequence (looked up): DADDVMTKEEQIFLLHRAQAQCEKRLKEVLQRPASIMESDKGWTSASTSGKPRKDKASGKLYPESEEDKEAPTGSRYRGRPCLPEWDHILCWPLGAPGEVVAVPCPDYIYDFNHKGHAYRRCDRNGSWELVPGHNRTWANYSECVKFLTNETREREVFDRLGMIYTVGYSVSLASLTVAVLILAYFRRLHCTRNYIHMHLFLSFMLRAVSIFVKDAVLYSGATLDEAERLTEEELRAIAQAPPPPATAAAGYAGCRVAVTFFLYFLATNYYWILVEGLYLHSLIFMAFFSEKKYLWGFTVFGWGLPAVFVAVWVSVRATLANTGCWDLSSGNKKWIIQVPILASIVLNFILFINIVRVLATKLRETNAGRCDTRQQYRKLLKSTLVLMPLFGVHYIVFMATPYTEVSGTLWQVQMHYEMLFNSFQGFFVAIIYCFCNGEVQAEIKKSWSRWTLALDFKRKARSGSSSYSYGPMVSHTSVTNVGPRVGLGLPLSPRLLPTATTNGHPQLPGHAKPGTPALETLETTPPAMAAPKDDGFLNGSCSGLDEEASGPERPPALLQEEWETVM

[2] = target: T1, human PTH/PTHrP receptor (PTH1 receptor); assay: competition of 125I-(Tyr36)hPTHrP-(1-36)NH2 binding, SaOS-2 membranes, 30 C, 60 min
[3] = target: T1, human PTH/PTHrP receptor (PTH1 receptor); assay: competition of 125I-(Tyr36)hPTHrP-(1-36)NH2 binding, human renal cortical membranes, 30 C, 30 min
[4] = target: T1, human PTH/PTHrP receptor (PTH1 receptor); assay: cell-based or functional assay; remark: listed apart in the source
[5] = target: T1, human PTH/PTHrP receptor (PTH1 receptor); assay: cell-based or functional assay; remark: listed apart in the source
[6] = target: T1, human PTH/PTHrP receptor (PTH1 receptor); assay: competition of 125I-(Tyr36)hPTHrP-(1-36)NH2 binding, intact SaOS-2 cells, 15 C, 150 min
Procedure: (§3) Binding studies were conducted at 15° C. in the presence of chymostatin (100 μg/ml) and bacitracin (200 μg/ml). […] The incubation time of 150 min was therefore used for competitive binding studies.

[7] = target: T1, human PTH/PTHrP receptor (PTH1 receptor); assay: competition of 125I-(Tyr36)hPTHrP-(1-36)NH2 binding, human renal cortical membranes, 30 C, 30 min
[8] = target: T1, human PTH/PTHrP receptor (PTH1 receptor); assay: as above; remark: listed apart in the source
[9] = target: T2, canine renal PTH/PTHrP receptor (canine, UniProt Q9TU31 29-595); assay: cell-based or functional assay
T2 sequence (looked up): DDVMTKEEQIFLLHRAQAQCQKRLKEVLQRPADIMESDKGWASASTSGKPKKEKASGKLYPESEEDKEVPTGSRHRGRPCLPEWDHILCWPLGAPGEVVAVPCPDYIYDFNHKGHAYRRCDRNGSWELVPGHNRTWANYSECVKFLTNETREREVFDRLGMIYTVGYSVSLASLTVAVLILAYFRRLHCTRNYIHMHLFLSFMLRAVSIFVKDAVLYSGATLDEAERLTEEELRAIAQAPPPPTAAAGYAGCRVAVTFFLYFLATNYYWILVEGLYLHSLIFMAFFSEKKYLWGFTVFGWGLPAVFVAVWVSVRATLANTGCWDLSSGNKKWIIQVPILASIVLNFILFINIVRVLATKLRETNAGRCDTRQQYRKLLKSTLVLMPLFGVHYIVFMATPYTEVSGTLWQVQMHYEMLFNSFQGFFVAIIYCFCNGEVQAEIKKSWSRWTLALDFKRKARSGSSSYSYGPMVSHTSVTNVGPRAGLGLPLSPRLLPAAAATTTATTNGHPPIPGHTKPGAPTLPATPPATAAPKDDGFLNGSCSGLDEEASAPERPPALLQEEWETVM

[10] = target: T2, canine renal PTH/PTHrP receptor; assay: competition of 125I-[Tyr36]PTHrP-(1-36)amide binding, canine renal cortical membranes, 20 C; Ki from IC50
Procedure: (§4) Dissociation constants (Kd) were determined by Scatchard analysis of the data obtained from competitive binding experiments using radioligand and increasing concentrations of unlabeled ligand. […] Statistical differences were assessed by paired Student's t test. […] Computer fits of a one- or two-binding site model were compared, indicating the statistically preferred model. Significance was determined using a partial F-test.
(§5) The Kd values were determined by Scatchard analysis, and the Kᵢ values were derived from the IC₅₀ values.

[11] = target: T2, canine renal PTH/PTHrP receptor; assay: competition of 125I-[Nle8,18,Tyr34]hPTH-(1-34)amide binding, canine renal cortical membranes, 20 C; Ki from IC50
Procedure: as §4, §5

[12] = target: T1, human PTH/PTHrP receptor (PTH1 receptor); assay: cell-based or functional assay; remark: listed apart in the source
[13] = target: T1, human PTH/PTHrP receptor (PTH1 receptor); assay: competition of 125I-(Tyr36)hPTHrP-(1-36)NH2 binding, human RCM, SaOS-2 membranes, intact SaOS-2 cells
Procedure: (§6) Human RCM were added to a final concentration of 90 μg/ml. […] The incubation time of 30 min was used for subsequent equilibrium binding competition studies.
(§7) The binding assay for SaOS-2 membranes was conducted as for human RCM.
as §3

[14] = target: T2, canine renal PTH/PTHrP receptor; assay: competition of 125I-[Nle8,18,Tyr34]hPTH-(1-34)amide binding, canine renal cortical membranes, 20 C
Procedure: (§1) Binding assays were conducted in siliconized 12×75 mm borosilicate glass test tubes at 20° C. in a final volume of 0.2 ml. […] Binding was initiated by adding 50 μg membrane. At the end of the incubation periods described, 50 μl triplicate aliquots were layered onto 300 μl of iced binding buffer containing 1.0% BSA in 500 μl polypropylene tubes. The tubes were centrifuged at approximately 16,000×g for three min at 4° C. in a microcentrifuge. The supernatant was aspirated and the tip of the tube containing the membrane-associated radioligand was cut off. Radioactivity in both the pellet and supernatant was measured.
(§2) Dissociation constants (Kd) were determined by Scatchard analysis of the data obtained from competitive binding experiments using radioligand and increasing concentrations of unlabeled ligand. […] Statistical differences were assessed by paired Student's t test. […] Significance was determined using a partial F-test.

[15] = target: T2, canine renal PTH/PTHrP receptor; assay: homologous competition of 125I-[Nle8,18,Tyr34]hPTH-(1-34)amide binding, canine renal cortical membranes, 20 C
Procedure: as §1, §2

[16] = target: T2, canine renal PTH/PTHrP receptor; assay: competition of 125I-[Tyr36]PTHrP-(1-36)amide binding, canine renal cortical membranes, 20 C; printed as binding dissociation constant, heterologous competitor (Ki from IC50 by paragraph 214)
Procedure: as §1, §2

[17] = target: T1, human PTH/PTHrP receptor (PTH1 receptor); assay: competition binding, human RCM and SaOS-2 membranes
Procedure: as §6, §7
IC₅₀ values for competitive binding experiments and EC₅₀ values for adenylate cyclase dose response curves were determined from the concentration of peptide yielding 50% of the maximal response. Statistical differences were assessed by paired and unpaired two-tailed Student's t test.

[18] = target: T2, canine renal PTH/PTHrP receptor; assay: competition of 125I-[Tyr36]PTHrP-(1-36)amide binding, canine renal cortical membranes, 20 C
Procedure: as §1, §2

Molecule | IC50 [2] | Adenylate cyclase (EC50), SaOS membranes [4] | Adenylate cyclase (EC50), kidney membranes (human RCM) [4] | Adenylate cyclase (EC50), SaOS cells (intact, 15 C, 60 min) [5] | Adenylate cyclase (EC50), kidney membranes (human RCM) [5] | IC50 [6] | IC50 [7] | IC50 [8] | also measured
(Tyr^36) chicken (c) PTHrP-(1-36)amide (from UniProt P17251 38-73) (peptide) | 1.1 nM | – | – | – | – | – | – | – | Adenylate cyclase (EC50), SaOS cells (intact, 15 C, 60 min) [1]: 0.8 nM; Adenylate cyclase (EC50), SaOS membranes [1]: 0.87 nM; Adenylate cyclase (EC50), kidney membranes (human RCM) [1]: 0.49 nM; IC50 [3]: 0.47 nM
SVSEIQL[Nle]HNLGKHLNS[Nle]ERVEWLRKKLQDVHNY [(Nle^8,18, Tyr^34)hPTH-(1-34)] | 2 nM | 1.9 nM | 1.1 nM | 2.3 nM | 1.1 nM | 2.8 nM | 3.6 nM | 3.6 nM | –
B1 | – | 0.5 nM | – | 1.2 nM | – | – | – | – | adenylate cyclase potency against PTHrP-(1-36), standard assay (30 min, 30 C) [9]: 6 fold; adenylate cyclase stimulation against PTHrP-(1-36), binding assay conditions (20 C, 20 min, bacitracin) [9]: 15 fold; Ki [10]: 10.5 nM; Ki [11]: 6.1 nM
B2 | – | 0.09 nM | 0.05 nM | 0.9 nM | 0.05 nM | 0.9 nM | – | – | adenylate cyclase potency against hPTHrP-(1-36), human RCM and SaOS-2 membranes [12]: 10 fold
RATSEVSPNSKPSPNTKNHPVRFGSDDEGRYLTQETNK (peptide, UniProt P12272 73-110, looked up, range 73-110; Solid phase synthesis) [hPTHrP-(37-74)] | – | – | – | – | – | – | – | – | binding result [13]: no binding
B3 | – | – | – | – | – | – | – | – | fold more potent than PTHrP-(1-36) in inhibiting binding [14]: < 2 fold; Ki [15]: 7.5 nM; Ki [16]: 8.5 nM
B4 | 8 nM | 2.4 nM | 0.59 nM | 7.7 nM | 0.59 nM | 17.5 nM | 5.1 nM | 5.1 nM | fold lower relative affinity than the amino-terminal analogs [17]: ~10 fold
SPNTKNHPVRFGSDDEGRYLTQETNK (peptide, UniProt P12272 85-110, looked up, range 49-74; Solid phase synthesis) [PTHrP-(49-74)] | – | – | – | – | – | – | – | – | binding result [18]: no binding
CQLLHDWGGSIQDL (also called P1-peptide; P1 peptide) [(Cys^5,Trp^11,Gly^13)PTHrP-(5-18)] | – | – | – | – | – | – | – | – | binding result [18]: no binding
B5 | 20 nM | 16.3 nM | 5.4 nM | 3.9 nM | 5.4 nM | – | 21.5 nM | 21.5 nM | –
